From patent publication US20250313612A1 (Adimab, published 2025)

Experiments:
[1] = target: RSV F protein of recombinant mKate-RSV, subtype A (strain A2) (Respiratory syncytial virus subtype A …, UniProt P03420 26-574); assay: cell-based or functional assay
[2] = target: RSV F protein of recombinant mKate-RSV, subtype B (18537) (Respiratory syncytial virus subtype B …, UniProt P13843 26-574); assay: cell-based or functional assay

B1: ADI-14521 (antibody, V domains shown)
VH: QVQLVQSGTEVKKPGASVKVSCLTSGYTFTHFGISWVRQAPGQGLEWMGWFSAYNGNTKYAQKFQGRITLTIDTSTSIAYLELRSLRSDDTAVYYCARDPPSLTAAGTLDYWGQGTLVTVSS
VL: DIRLTQSPLSLPVTLGQPASISCSSNQSLVYSDGNTYLSWFQQRPGQSPRRLIYKVSDRDSGVPDRFSGSGSGTDFTLKISRVEAEDVGVYYCMQATDWPRTFGQGTKVEIK
**Q.** For B1, which “Neut IC50 subtype A” value [1] is on record?
**A.** 0.083 µg/mL

**Q.** And the “Neut IC50 subtype B” value [2]?
**A.** 0.123 µg/mL

B2: ADI-14455 (antibody, V domains shown)
VH: QVQLVQSGAEVKKPGASVKVSCKASGYTFTSYGTSWVRQAPGQGLEWMGWISAYNGNTNYAQNLQGRVTMTTDTSTSTSYMELRSLRSDDTAVYYCARDVPVIAAGTMDYWGQGTLVTVSS
VL: DIVMTQTPLSLPVTLGQPASISCRSSQSLVYSDGNTYLNWFQQRPGQSPRRLIYKVSNRDSGVPDRFSGSGSGTDFTLKISRVEAEDVGVYYCMQGPHWPRTFGQGTKVEIK
**Q.** What does the source list for B2?
**A.** Neut IC50 subtype A [1]: 0.012 µg/mL; Neut IC50 subtype B [2]: 0.036 µg/mL

B3: ADI-14448 (antibody, V domains shown)
VH: EVQLVESGGGLVKPGGSLRLSCAASGSSFRYSYMSWVRQAPGKGLQWVASISPSSTYTDYADSVKGRSTISRDHDKISLQVNSLRGDDTAVYYCVRHMNLVMGPFAFDIWGRGTMVTVSS
VL: QSVVTQPPSLSGAPGQRITISCTGSSSNIGAGYDVNWYQQLPGTAPKLLIYAKTNRPSGVPERFSGSESGTSASLAITGLQPEDEADYYCQSYDRIGMYVFGTGTKLTVL
**Q.** With B3 as the binder, how does the “Neut IC50 subtype A” value [1] read?
**A.** 0.043 µg/mL

**Q.** And the “Neut IC50 subtype B” value [2]?
**A.** 0.066 µg/mL

B4: ADI-14451 (antibody, V domains shown)
VH: EVQLVESGAEVRKPGASVKVSCKASGYIFINYYIHWVRQAPGQGLEWMGWINPNSGASNHAQTFEGRITMTTDTSSNTAYMELSRLREDDTAVYYCARSQQLLVITDYSLDYWGLGTLVTVSS
VL: SSELTQDPAVSVALGQTVRITCHGDTLRNYYPAWYQQKPGQAPVLVVSDRNTRPSGIPDRFSVSTSGNTASLTITGAQAEDEGDYYCNCRDSSGHRLVFGGGTKLTVL
**Q.** What does the source list for B4?
**A.** Neut IC50 subtype A [1]: 0.02 µg/mL; Neut IC50 subtype B [2]: 0.06 µg/mL

B5: ADI-14519 (antibody, V domains shown)
VH: EVQLVESGAEMKQPGASVKVSCEGFGNTLSERSIHWVRQAPGKGPEWMGDYDHEDKEAIYAPKFQGRLTISADMSTDIASLELNSLTSEDTAVYYCATVIAVGAYDIWGQGTLVTVSS
VL: EIVLTQSPSSLYASIGDRVTITCRTGQSISRYLNWYQQKPGKAPKLLIYAASTLQSGVPSRFSGSGAGTDFTLTIRGLLPEDFATYFCQQSYIIPYTFGQGTKVEIK
**Q.** B5 was tested. Which “Neut IC50 subtype A” value [1] did it give?
**A.** 12.2 µg/mL

**Q.** And the “Neut IC50 subtype B” value [2]?
**A.** 3.43 µg/mL

B6: ADI-14456 (antibody, V domains shown)
VH: QVQLVQSGAEVKKPGASVKVSCEASEYSFSGDYVHWVRQAPGQGLEWMGWIKAVNGGANYAQKFHGRVTMTTDSSKSTVYLEMSRLTPADTAIYFCAKDRAASVHVPAGAFDLWGQGTLVTVSS
VL: DIQMTQSPSSLSAYVGDRVSITCRASQSIDNFLNWYRQRPGKAPELLIYAASTLQGGVPSRFSGSGSGTHFTLTISSLQPEDFATYYCQQSFTIPSITFGQGTRLEIK
**Q.** B6 was tested. Which “Neut IC50 subtype A” value [1] did it give?
**A.** > 10 µg/mL

**Q.** What about the “Neut IC50 subtype B” value [2] of the same binder?
**A.** 0.372 µg/mL

B7: ADI-14464 (antibody, V domains shown)
VH: QVQLVQSGAEVKKPGASVKVSCEASAYSFSGDYVHWVRQAPGQGLEWMGWIKAVNGGANYAQRFHGRVTMTTDSSRSTVYLELTRLTPDDTAVYFCAKDRAASVHVPAGEFDLWGQGTLVTVSS
VL: DIQVTQSPSSLSASVGDRVSITCRASQSISNFLNWYRQRPGKAPELLIYAASTLQGGVPSRFSGSGSGTHFTLTISSLQPEDFATYYCQQSYTIPSITFGQGTRLEIK
**Q.** For B7, which “Neut IC50 subtype A” value [1] is on record?
**A.** > 10 µg/mL

**Q.** And the “Neut IC50 subtype B” value [2]?
**A.** 0.161 µg/mL

B8: ADI-14520 (antibody, V domains shown)
VH: QVQLQQWGAGLVKPSETLSLTCAVYGGSFSGYQWHWFRQPPGKGLEWIGEINHSEITHYNASLKSRVTLSIDTSKNQFSLNLTSVTAADTAVYYCARASSGSYNFEYWFDPWGQGTLVTVSS
VL: QSVLTQPPSVSVAPGKTAWLTCGGNNIGSKRVHWYRQKPGQAPVLVVYDDYDRPSGTPERVSGSNSGNTATLTISRVEDGDEGDYYCQVWDDPSDHAVFGGGTKLTVL
**Q.** B8 was tested. Which “Neut IC50 subtype A” value [1] did it give?
**A.** 0.029 µg/mL

**Q.** And the “Neut IC50 subtype B” value [2]?
**A.** 0.045 µg/mL
